From PMC12499469

Biological target: GRB2 (human (cDNA from 293T or brain glioma cells)), P62993
Experiment: molecular recruitment colocalization (MRC), live-cell fluorescence imaging; bait fused to scFv and a fluorescent protein, recruited by dCas9-10xGCN4 (SunTag) and sgRNA MUC4-272kb to a repeated genomic locus in SunTag10x-dCas9-HEK293T cells; preys fused to mCherry or mTagBFP2 with NLS; colocalized spots imaged 24 h after transfection, 37 °C
Settings: remark: other sources report otherwise

- SNR ratio (GRB2/SOS1 puncta): 1.46
B1: SOS1, Q07889 1-1333 (natural protein)
chain: MQAQQLPYEFFSEENAPKWRGLLVPALKKVQGQVHPTLESNDDALQYVEELILQLLNMLCQAQPRSASDVEERVQKSFPHPIDKWAIADAQSAIEKRKRRNPLSLPVEKIHPLLKEVLGYKIDHQVSVYIVAVLEYISADILKLVGNYVRNIRHYEITKQDIKVAMCADKVLMDMFHQDVEDINILSLTDEEPSTSGEQTYYDLVKAFMAEIRQYIRELNLIIKVFREPFVSNSKLFSANDVENIFSRIVDIHELSVKLLGHIEDTVEMTDEGSPHPLVGSCFEDLAEELAFDPYESYARDILRPGFHDRFLSQLSKPGAALYLQSIGEGFKEAVQYVLPRLLLAPVYHCLHYFELLKQLEEKSEDQEDKECLKQAITALLNVQSGMEKICSKSLAKRRLSESACRFYSQQMKGKQLAIKKMNEIQKNIDGWEGKDIGQCCNEFIMEGTLTRVGAKHERHIFLFDGLMICCKSNHGQPRLPGASNAEYRLKEKFFMRKVQINDKDDTNEYKHAFEIILKDENSVIFSAKSAEEKNNWMAALISLQYRSTLERMLDVTMLQEEKEEQMRLPSADVYRFAEPDSEENIIFEENMQPKAGIPIIKAGTVIKLIERLTYHMYADPNFVRTFLTTYRSFCKPQELLSLIIERFEIPEPEPTEADRIAIENGDQPLSAELKRFRKEYIQPVQLRVLNVCRHWVEHHFYDFERDAYLLQRMEEFIGTVRGKAMKKWVESITKIIQRKKIARDNGPGHNITFQSSPPTVEWHISRPGHIETFDLLTLHPIEIARQLTLLESDLYRAVQPSELVGSVWTKEDKEINSPNLLKMIRHTTNLTLWFEKCIVETENLEERVAVVSRIIEILQVFQELNNFNGVLEVVSAMNSSPVYRLDHTFEQIPSRQKKILEEAHELSEDHYKKYLAKLRSINPPCVPFFGIYLTNILKTEEGNPEVLKRHGKELINFSKRRKVAEITGEIQQYQNQPYCLRVESDIKRFFENLNPMGNSMEKEFTDYLFNKSLEIEPRNPKPLPRFPKKYSYPLKSPGVRPSNPRPGTMRHPTPLQQEPRKISYSRIPESETESTASAPNSPRTPLTPPPASGASSTTDVCSVFDSDHSSPFHSSNDTVFIQVTLPHGPRSASVSSISLTKGTDEVPVPPPVPPRRRPESAPAESSPSKIMSKHLDSPPAIPPRQPTSKAYSPRYSISDRTSISDPPESPPLLPPREPVRTPDVFSSSPLHLQPPPLGKKSDHGNAFFPNSPSPFTPPPPQTPSPHGTRRHLPSPPLTQEVDLHSIAGPPVPPRQSTSQHIPKLPPKTYKREHTHPSMHRDGPPLLENAHSS
